The target of this experiment is Protein L (UniProt Q51918). Description: BLI. (In general: Biolayer interferometry detects binding as a change in optical thickness at a sensor tip.)

What is called koff is the first-order rate constant of dissociation. For the substance “Trastuzumab wild-type (recombinant Trastuzumab model) (antibody)”, the koff worked out at 1.2e-05 s⁻¹.

For the origin of these results see publication PMC5476676.
